Assay results reported in the supplement of paper PMC10567573.

B1: RAB11A (parent)
chain: AVPTDEARAFAEKNGLSFIETSAL

Variants of: B1
Assay: protein stability index of a GFP-peptide fusion (GPS, HEK-293T) (PSI 1-6); higher = more stable
Conditions: c terminus: a fixed tail appended
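Note: lentivirally expressed fusions sorted by FACS into six bins by GFP to DsRed ratio, PSI derived from sequencing read proportions per bin multiplied by bin number.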

Variant	protein stability index
AVPTDEARAFAEGNGLSFIETSAL [K13G]	3.15
AVPTDEARAFAEPNGLSFIETSAL [K13P]	2.28
AVPTDEARAFAECNGLSFIETSAL [K13C]	2.38
AVPTDEARAFAELNGLSFIETSAL [K13L]	2.17
AVPTDEARAFAEQNGLSFIETSAL [K13Q]	2.67
AVPTDEARAFAEKNGMSFIETSAL [L16M]	3.73
AVPTDEARAFAEKNGISFIETSAL [L16I]	3.85
AVPTDEARAFAEKNGSSFIETSAL [L16S]	4.35
AVPTDEARAFAEKNGVSFIETSAL [L16V]	3.73
AVPTDEARAFAEKNGWSFIETSAL [L16W]	2.6
AVPTDEARAFAEKNGESFIETSAL [L16E]	4.73
AVPTDEARAFAEKNGHSFIETSAL [L16H]	4.3
AVPTDEARAFAEKNGPSFIETSAL [L16P]	4.08
AVPTDEARAFAEKNGKSFIETSAL [L16K]	4.27
AVPTDEARAFAEKNGLSFIETSAI [L24I]	2.34
AVPTDEARAFAEKNGLSFIETSAM [L24M]	3.08
AVPTDEARAFAEKNGLSFIETSAQ [L24Q]	3.47
AVPTDEARAFAEKNGLSFIETSAR [L24R]	2.63
AVPTDEARAFAEKNGLSIIETSAL [F18I]	3.6
AVPTDEARAFAEKNGLSCIETSAL [F18C]	4.29
AVPTDEARAFAEKNGLSSIETSAL [F18S]	4.62
AVPTDEARAFAEKNGLSAIETSAL [F18A]	4.62
AVPTDEARAFAEKNGLSGIETSAL [F18G]	4.35
AVPTDEARAFAEKNGLSPIETSAL [F18P]	4.68

Variant	protein stability index
AVPTDEARAFAEKNGLSLIETSAL [F18L]	4.14
AVPTDEARAFAEKNGLSVIETSAL [F18V]	4.35
AVPTDEARAFAEKNGLSDIETSAL [F18D]	5.03
AVPTDEARAFAEKNGLSHIETSAL [F18H]	4.72
AVPTDEARAFAEKNGLSRIETSAL [F18R]	4.22
AVPTDEARAFAYKNGLSFIETSAL [E12Y]	1.74
AVPTDEARAFAKKNGLSFIETSAL [E12K]	1.81
AVPTDEARAFAWKNGLSFIETSAL [E12W]	2.08
AVPTDEARAFADKNGLSFIETSAL [E12D]	2.54
AVPTDEARAFARKNGLSFIETSAL [E12R]	2.55
AVPTDEARAFAEKNGLSFIEGSAL [T21G]	1.78
AVPTDEARAFAEKNGLSFIEPSAL [T21P]	2.15
AVPTDEARAFAEKNGLSFIEHSAL [T21H]	2.67
AVPTDEARAFAEKNGLSFIESSAL [T21S]	3.11
AVPTDEARAFAEKNGLSFIEASAL [T21A]	2.49
AVPTDEARAFAEKNGLSFIEISAL [T21I]	1.8
AVFTDEARAFAEKNGLSFIETSAL [P3F]	2.23
AVSTDEARAFAEKNGLSFIETSAL [P3S]	2.57
AVTTDEARAFAEKNGLSFIETSAL [P3T]	2.81
AVYTDEARAFAEKNGLSFIETSAL [P3Y]	2.23
AVCTDEARAFAEKNGLSFIETSAL [P3C]	1.67
AVVTDEARAFAEKNGLSFIETSAL [P3V]	2.14
AVETDEARAFAEKNGLSFIETSAL [P3E]	2.47
AVDTDEARAFAEKNGLSFIETSAL [P3D]	3.01

Variant	protein stability index
AVPTDEARDFAEKNGLSFIETSAL [A9D]	2.78
AVPTDEARNFAEKNGLSFIETSAL [A9N]	2.46
AVPTDEARPFAEKNGLSFIETSAL [A9P]	2.08
AVPTDEARVFAEKNGLSFIETSAL [A9V]	2.45
AVPTDEARMFAEKNGLSFIETSAL [A9M]	2.35
AVPTDEARIFAEKNGLSFIETSAL [A9I]	2.33
AVPTDEARFFAEKNGLSFIETSAL [A9F]	2.1
AVPTDEARCFAEKNGLSFIETSAL [A9C]	1.82
AVPTDEARKFAEKNGLSFIETSAL [A9K]	2.34
AVPTDEARRFAEKNGLSFIETSAL [A9R]	1.96
AVPTDRARAFAEKNGLSFIETSAL [E6R]	2.25
AVPTDHARAFAEKNGLSFIETSAL [E6H]	1.87
AVPTDGARAFAEKNGLSFIETSAL [E6G]	1.87
AVPTDDARAFAEKNGLSFIETSAL [E6D]	2.18
AVPTDSARAFAEKNGLSFIETSAL [E6S]	2.09
AVPTDLARAFAEKNGLSFIETSAL [E6L]	1.6
AVPTDPARAFAEKNGLSFIETSAL [E6P]	1.74
AVPTDKARAFAEKNGLSFIETSAL [E6K]	1.8
AVPTDEARAFAEKIGLSFIETSAL [N14I]	2.13
AVPTDEARAFAEKDGLSFIETSAL [N14D]	3.62
AVPTDEARAFAEKPGLSFIETSAL [N14P]	2.44
AVPTDEARAFAEKCGLSFIETSAL [N14C]	1.71
AVPTDEARAFAEKFGLSFIETSAL [N14F]	2.25
AVPTDEDRAFAEKNGLSFIETSAL [A7D]	2.99

Variant	protein stability index
AVPTDEKRAFAEKNGLSFIETSAL [A7K]	2.19
AVPTDELRAFAEKNGLSFIETSAL [A7L]	2.28
AVPTDEQRAFAEKNGLSFIETSAL [A7Q]	2.87
AVPTDEVRAFAEKNGLSFIETSAL [A7V]	2.25
AVPTDEARAFAEKNGLSFMETSAL [I19M]	3.91
AVPTDEARAFAEKNGLSFCETSAL [I19C]	3.45
AVPTDEARAFAEKNGLSFGETSAL [I19G]	4.5
AVPTDEARAFAEKNGLSFFETSAL [I19F]	3.4
AVPTDEARAFAEKNGLSFWETSAL [I19W]	3.92
AVPTDEARAFAEKNGLSFYETSAL [I19Y]	3.81
AVPTDEARAFAEKNGLSFKETSAL [I19K]	4.12
AVPTDEARAFAEKNGLSFIETSIL [A23I]	1.65
AVPTDEARAFAEKNGLSFIETSLL [A23L]	1.9
AVPTDEARAFAEKNGLSFIETSKL [A23K]	2.42
AVPTDEARAFAEKNGLSFIETSQL [A23Q]	2.52
AVPTDEARAFAEKNGLSFIETSRL [A23R]	2.04
AVPTDEARAFAEKNGLSFIETSVL [A23V]	2.12
AVPTDEARAFAEKNGLSFIETSFL [A23F]	1.66
AVPTDEARAFAEKNGLRFIETSAL [S17R]	3.08
AVPTDEARAFAEKNGLFFIETSAL [S17F]	2.62
AVPTDEARAFAEKNGLYFIETSAL [S17Y]	2.97
AVPTDEARAFAEKNGLVFIETSAL [S17V]	2.79
AVPTDEARAFAEKNGLWFIETSAL [S17W]	2.66
AVPTDEARAFAEKNGLLFIETSAL [S17L]	2.7

Variant	protein stability index
AVPTDEARAFAEKNGLNFIETSAL [S17N]	1.56
AVPTDEARAFAEKNGLDFIETSAL [S17D]	3.14
AVPTDEARAFAEKNGLKFIETSAL [S17K]	3.23
AVPTDEARAFAEKNGLMFIETSAL [S17M]	2.81
AVPTDEARAFAEKNGLQFIETSAL [S17Q]	4.02
AVPTDEARAFAEKNGLTFIETSAL [S17T]	3.36
AVPTLEARAFAEKNGLSFIETSAL [D5L]	2.41
AVPTKEARAFAEKNGLSFIETSAL [D5K]	1.79
AVPTYEARAFAEKNGLSFIETSAL [D5Y]	2.15
AVPTCEARAFAEKNGLSFIETSAL [D5C]	1.89
AVPTQEARAFAEKNGLSFIETSAL [D5Q]	2.07
AVPTSEARAFAEKNGLSFIETSAL [D5S]	2.19
AVPTAEARAFAEKNGLSFIETSAL [D5A]	1.77
AVPTTEARAFAEKNGLSFIETSAL [D5T]	2.52
AVPTVEARAFAEKNGLSFIETSAL [D5V]	2.05
AVPTIEARAFAEKNGLSFIETSAL [D5I]	2.04
AVPTREARAFAEKNGLSFIETSAL [D5R]	1.99
AVPTWEARAFAEKNGLSFIETSAL [D5W]	1.49
AVPTDEARAFAEKNGLSFIETKAL [S22K]	3.44
AVPTDEARAFAEKNGLSFIETHAL [S22H]	2.22
AVPTDEARAFAEKNGLSFIETYAL [S22Y]	2.08
AVPTDEARAFAEKNGLSFIETNAL [S22N]	3.38
AVPTDEARAFAEKNGLSFIETRAL [S22R]	2.25
AVPTDEARAFAEKNGLSFIETPAL [S22P]	3.73

Variant	protein stability index
AVPTDEARAFAEKNGLSFIETGAL [S22G]	2.91
AVPTDEARAFAEKNGLSFIETFAL [S22F]	2.27
AVPTDEARAFAEKNGLSFIPTSAL [E20P]	3.12
AVPTDEARAFAEKNGLSFIDTSAL [E20D]	2.08
AVPTDEARAFAEKNGLSFISTSAL [E20S]	3.01
AVPTDEARAFAEKNGLSFIYTSAL [E20Y]	2.35
AVPTDEARAFAEKNGLSFIRTSAL [E20R]	2.5
AVPTDEARAFAEKNGLSFIHTSAL [E20H]	1.87
AVPTDEARAFAEKNGLSFIITSAL [E20I]	1.8
AVPTDEARAFAEKNGLSFIGTSAL [E20G]	2.02
AVPTDEARAFAEKNGLSFITTSAL [E20T]	2.41
AMPTDEARAFAEKNGLSFIETSAL [V2M]	2.67
AHPTDEARAFAEKNGLSFIETSAL [V2H]	2.46
ATPTDEARAFAEKNGLSFIETSAL [V2T]	2.47
ASPTDEARAFAEKNGLSFIETSAL [V2S]	2.48
AYPTDEARAFAEKNGLSFIETSAL [V2Y]	2.49
ARPTDEARAFAEKNGLSFIETSAL [V2R]	2.56
AAPTDEARAFAEKNGLSFIETSAL [V2A]	2.51
APPTDEARAFAEKNGLSFIETSAL [V2P]	2.98
ADPTDEARAFAEKNGLSFIETSAL [V2D]	2.74
AWPTDEARAFAEKNGLSFIETSAL [V2W]	2.05
AKPTDEARAFAEKNGLSFIETSAL [V2K]	2.11
AVPTDEAVAFAEKNGLSFIETSAL [R8V]	2.72
AVPTDEAFAFAEKNGLSFIETSAL [R8F]	1.97

Variant	protein stability index
AVPTDEAYAFAEKNGLSFIETSAL [R8Y]	1.99
AVPTDEAMAFAEKNGLSFIETSAL [R8M]	2.4
AVPTDEAKAFAEKNGLSFIETSAL [R8K]	2.61
AVPTDEADAFAEKNGLSFIETSAL [R8D]	2.82
AVPTDEASAFAEKNGLSFIETSAL [R8S]	2.68
AVPTDEAQAFAEKNGLSFIETSAL [R8Q]	2.66
FVPTDEARAFAEKNGLSFIETSAL [A1F]	3.39
QVPTDEARAFAEKNGLSFIETSAL [A1Q]	2.43
TVPTDEARAFAEKNGLSFIETSAL [A1T]	2.55
LVPTDEARAFAEKNGLSFIETSAL [A1L]	2.28
HVPTDEARAFAEKNGLSFIETSAL [A1H]	2.63
PVPTDEARAFAEKNGLSFIETSAL [A1P]	2.38
AVPEDEARAFAEKNGLSFIETSAL [T4E]	2.75
AVPIDEARAFAEKNGLSFIETSAL [T4I]	2.28
AVPWDEARAFAEKNGLSFIETSAL [T4W]	1.93
AVPADEARAFAEKNGLSFIETSAL [T4A]	2.04
AVPDDEARAFAEKNGLSFIETSAL [T4D]	2.84
AVPVDEARAFAEKNGLSFIETSAL [T4V]	1.93
AVPMDEARAFAEKNGLSFIETSAL [T4M]	2.12
AVPKDEARAFAEKNGLSFIETSAL [T4K]	2.39
AVPCDEARAFAEKNGLSFIETSAL [T4C]	1.89
AVPYDEARAFAEKNGLSFIETSAL [T4Y]	2.11
AVPTDEARAFAEKNTLSFIETSAL [G15T]	1.7
AVPTDEARAFAEKNMLSFIETSAL [G15M]	2.02

Variant	protein stability index
AVPTDEARAFAEKNDLSFIETSAL [G15D]	3.87
AVPTDEARAFAEKNLLSFIETSAL [G15L]	1.67
AVPTDEARAFAEKNELSFIETSAL [G15E]	3.33
AVPTDEARAFAEKNKLSFIETSAL [G15K]	2.92
AVPTDEARAEAEKNGLSFIETSAL [F10E]	3.81
AVPTDEARADAEKNGLSFIETSAL [F10D]	3.86
AVPTDEARAIAEKNGLSFIETSAL [F10I]	2.44
AVPTDEARAYAEKNGLSFIETSAL [F10Y]	2.71
AVPTDEARALAEKNGLSFIETSAL [F10L]	2.33
AVPTDEARAMAEKNGLSFIETSAL [F10M]	2.27
AVPTDEARAPAEKNGLSFIETSAL [F10P]	2.31
AVPTDEARAKAEKNGLSFIETSAL [F10K]	2.37
AVPTDEARAHAEKNGLSFIETSAL [F10H]	2.54
AVPTDEARAFCEKNGLSFIETSAL [A11C]	2.32
AVPTDEARAFNEKNGLSFIETSAL [A11N]	2.5
AVPTDEARAFHEKNGLSFIETSAL [A11H]	2.64
AVPTDEARAFGEKNGLSFIETSAL [A11G]	1.97
AVPTDEARAFIEKNGLSFIETSAL [A11I]	1.91
AVPTDEARAFDEKNGLSFIETSAL [A11D]	3.24
AVPTDEARAFVEKNGLSFIETSAL [A11V]	2.65
